The nature of series [1]: folding stability dG unfold from chymotrypsin proteolysis; higher = more stable. Put shortly:
(§1)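 How resistant each design was to proteolysis was captured as K50, inferred by Bayesian fitting of sequencing counts. Unfolding free energy was then derived relative to a sequence-predicted unfolded-state K50 and a shared folded-state K50, per protease or combined. Digestion used trypsin and chymotrypsin at 11 threefold-diluted concentrations plus a no-protease condition, on mini-proteins under 80 residues without cysteine in a PA-tagged cDNA display construct. Designs were kept only when AlphaFold2 dimer inter-PAE was above 15.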

The nature of series [2]: folding stability dG unfold (combined trypsin and chymotrypsin); higher = more stable. The method in brief:
as §1

We go through 32 sequences from the supplement of paper PMC12764529.

± gives the half width of the 95% confidence interval. Bounds are passed on as bounds.

On to “SAGGSAGGSAKNTASLKKDDGFVAYNPKTGKYVAEVEVVKDDKDNIDLPLPNGDEVEIDAVGSAGGSAGGSA [r18_363_TrMRF]”, for which the “folding stability dG unfold” value in series [1] is -0.54 ± 0.42 kcal/mol; in series [2], -0.846 ± 0.44 kcal/mol.
Turning to “SAGGSAGGSALLEEAGALAAARGWDVEVSPGPVVTVRSPAGREVTITREGDELTVTERELPGDRSAGGSAGG [r6_523_JUSTAS]”, the “folding stability dG unfold” value in series [1] is 0.466 ± 0.18 kcal/mol; in series [2] it was -0.308 ± 0.35 kcal/mol.
Taken in the same sequence, the figures for “SAGGSAGGSALRPDEPFLVRVRIVDPRPGEGPPVERELVLPLEAILRLIPPGAGADVELLPSAGGSAGGSAG [r3_223_TrMRF]” were -0.747 ± 0.94 kcal/mol and below -1 kcal/mol.
As to “SAGGSAGGSAPKFDLRPEVFPLEDDSFLFVSRLLDPDKRLLTLVKVPPNGGLELGDVLLLDSAGGSAGGSAG [r3_165_TrMRF]”, the results for the “folding stability dG unfold” value in series [1] and in series [2] were -0.176 ± 0.3 kcal/mol and -0.829 ± 0.33 kcal/mol, respectively.
Taken in the same sequence, the figures for “SAGGSAGGSASSVSSLSEETLPDGKPVLVRKETVYDPKHGLTGLSVTYYTLGGKKLKTEVVSAGGSAGGSAG [r3_154_JUSTAS]” were -0.477 ± 0.26 kcal/mol and -0.698 ± 0.22 kcal/mol.
For the sequence “SAGGSAGGSAVVYDENTAIVKTPNKDYLLKVKVGDTVDIPDSAGIPVPVKVEKDFPIPPSELSAGGSAGGSA [r18_244_JUSTAS]”, the “folding stability dG unfold” value in series [1] was -0.38 ± 0.12 kcal/mol; in series [2] it was -0.943 ± 0.43 kcal/mol.
Take “SAGGSAGGSAWYIRIKSPELRKKLKNAGGIKPTEREPNWVTFKFPGMPPKKRDKIRELIKDSAGGSAGGSAG [r3_398_TrROS]”: the “folding stability dG unfold” value in series [1] is -0.644 ± 0.49 kcal/mol; in series [2], -0.969 ± 0.26 kcal/mol.
For the sequence “SAGGSAGGSGEPRTVLVEVLYDDKPVLIPVTADSEEALPEVARAAIEPLAEKYPHVEIPLPTESAGGSAGGS [r12_230_TrMRF]”, the “folding stability dG unfold” value in series [1] was 0.164 ± 0.11 kcal/mol; in series [2], -0.66 ± 0.52 kcal/mol.
As for “SAGGSAGGSGSMSLSESPTSRTLTLTYPDSVVVTEYDPETGPPVTRFVSREDGVPVVYPAELLSAGGSAGGS [r12_632_JUSTAS]”, the “folding stability dG unfold” value in series [1] is -0.0818 ± 0.1 kcal/mol; in series [2], -0.414 ± 0.09 kcal/mol.
Turning to “SAGGSAGGSGTSTSSSGPSTVTITLHTDSPVTLTVPPETTEELAAELKARGYNLEVKVTPAPASAGGSAGGS [r20_124_JUSTAS]”, the “folding stability dG unfold” value in series [1] was 0.161 ± 0.12 kcal/mol; in series [2] it was -0.195 ± 0.11 kcal/mol.
In the case of “SAGGSAGGSGYPGLPMPVLRVRFAGDPEPVFIPVPADRPDVARAAAEELRALRPDVPVELELGSAGGSAGGS [r12_601_TrMRF]”, the figures for the “folding stability dG unfold” value in series [1] and in series [2] were 0.823 ± 0.045 kcal/mol and 0.107 ± 0.057 kcal/mol, respectively.
Consider “SAGGSAGGSGYSVSVSEDFSSSPETRTVTTTTTSPSSGPLVTTTTTTTSPIPPRTPAEVAAAASAGGSAGGS [r12_841_JUSTAS]”, for which the “folding stability dG unfold” value in series [1] came out at 0.697 ± 0.029 kcal/mol; in series [2], 0.327 ± 0.048 kcal/mol.
For the sequence “SAGGSAGGSIKITLETETETYLDPEDPNRPVTKVKAVKPTIEVPEENPEKLKELAEKLGLELESAGGSAGGS [r12_249_TrMRF]”, the “folding stability dG unfold” value in series [1] was 0.723 ± 0.034 kcal/mol; in series [2], 0.232 ± 0.1 kcal/mol.
Turning to “SAGGSAGGSKIKSITIDPEAGKVTIEVDKDTPPKPLPSVKTVEEKNDGYTVTFDVKDDEEILLSAGGSAGGS [r20_37_TrMRF]”, the figures for the “folding stability dG unfold” value in series [1] and in series [2] were 0.416 ± 0.086 kcal/mol and -0.39 ± 0.41 kcal/mol, respectively.
On to “SAGGSAGGSKMKKITIEVPTEEERKALEEAIKKGEPEVEITTKNGKKIKIKKIEIKEIKIEKKSAGGSAGGS [r12_334_TrROS_Hall]”, for which the “folding stability dG unfold” value in series [1] was determined as 1.58 ± 0.14 kcal/mol; in series [2], 0.758 ± 0.42 kcal/mol.
Turning to “SAGGSAGGSMKLGGKPIKRVESEPLPGPSRLFYIELEDKKIPVVLEGDKLLVSPELFEWEKEGSAGGSAGGS [r20_92_TrMRF]”, the “folding stability dG unfold” value in series [1] was 0.396 ± 0.22 kcal/mol; in series [2], -0.0157 ± 0.2 kcal/mol.
In the case of “SAGGSAGGSMPEKKFKAEVVEEIEDPKTGKKFYFLKDTKQIFVENKDGSRTAITIDEDKLEIVSAGGSAGGS [r12_420_TrROS_Hall]”, the “folding stability dG unfold” value was found to be 0.433 ± 0.098 kcal/mol in series [1] and 0.0252 ± 0.15 kcal/mol in series [2].
As for “SAGGSAGGSMTITVETTSKDPAVAEKELTEKVKKEYPPSVKVEIDPVSSPDGVARVRATIIRESAGGSAGGS [r20_122_JUSTAS]”, the “folding stability dG unfold” value in series [1] worked out at 0.529 ± 0.09 kcal/mol; in series [2], 0.291 ± 0.19 kcal/mol.
As to “SAGGSAGGSMTPVHVYVPPSLSPEEARARVRAELRAALPAAEADVPLEDVEVVLRPLPPDVPLSAGGSAGGS [r12_384_JUSTAS]”, the “folding stability dG unfold” value was 0.303 ± 0.42 kcal/mol in series [1] and below -1 kcal/mol in series [2].
Regarding “SAGGSAGGSMTTLRTRLKGDGTVEIEVYEPGRIRTITLPPSEVDKIPDVEDLPRYELEGDAPESAGGSAGGS [r12_343_JUSTAS]”, the results for the “folding stability dG unfold” value in series [1] and in series [2] were 0.147 ± 0.21 kcal/mol and -0.514 ± 0.22 kcal/mol, respectively.
As to “SAGGSAGGSMTVTLSYPDGSTVTRPLEGKSLEEAIAALPEDVTEVQVTVLEGSTPVTRTVPRPSAGGSAGGS [r12_767_JUSTAS]”, the “folding stability dG unfold” value in series [1] came to 0.731 ± 0.023 kcal/mol; in series [2], 0.344 ± 0.054 kcal/mol.
“SAGGSAGGSPAIRVERDPETDVLLAEIGHPDGVPALARISPATGTVTVLEGGKLVEVPLPEIGSAGGSAGGS [r12_650_TrMRF]”: the “folding stability dG unfold” value in series [1] was 0.627 ± 0.018 kcal/mol; in series [2] it was 0.113 ± 0.13 kcal/mol.
Consider “SAGGSAGGSPPVIHPMTVTTLAYDPATGVVDVLVDDKGKDPAVREAAEAAARAAGHPVEVVPRSAGGSAGGS [r20_157_JUSTAS]”, for which the “folding stability dG unfold” value in series [1] was -0.637 ± 0.34 kcal/mol; in series [2], below -1 kcal/mol.
As for “SAGGSAGGSPVRPRTGTVYDPETGARVDVLEYEFPLPDGTPVTVTEVVVTDGDTRTTATLVDPSAGGSAGGS [r12_619_TrMRF]”, the “folding stability dG unfold” value was 0.29 ± 0.014 kcal/mol in series [1] and -0.263 ± 0.073 kcal/mol in series [2].
Regarding “SAGGSAGGSPWQVTHETVTLPEYDPSSDKPIREVTVTVTTETDPTTGATTVSLNLPSDFLRELRSAGGSAGG [r6_206_JUSTAS]”, the “folding stability dG unfold” value in series [1] is 0.291 ± 0.14 kcal/mol; in series [2] it was -0.123 ± 0.22 kcal/mol.
As to “SAGGSAGGSRWRVSFEGPNGGTQEHDIPVPPGEPVDLDEILDEFKEAHPGGPPRPIKIERPDPSAGGSAGGS [r12_262_TrROS]”, the entries for the “folding stability dG unfold” value in series [1] and in series [2] were 0.232 ± 0.28 kcal/mol and -0.651 ± 0.33 kcal/mol, respectively.
On to “SAGGSAGGSSGLTLLEETEISPGPPVPAIPATLPVKVDGKTVPLPITLTPEELAALRAELLRRSAGGSAGGS [r20_148_JUSTAS]”, for which the figures for the “folding stability dG unfold” value in series [1] and in series [2] were 0.893 ± 0.088 kcal/mol and 0.364 ± 0.093 kcal/mol, respectively.
Turning to “SAGGSAGGSSPKAQRLQDRIRQEFPPNEIDKVEMSGDKIVIHGRPGYRQRIQEELGLKNIEIVSAGGSAGGS [r12_748_TrROS]”, the “folding stability dG unfold” value was 0.344 ± 0.098 kcal/mol in series [1] and 0.0708 ± 0.13 kcal/mol in series [2].
Taken in the same sequence, the figures for “SAGGSAGGSSSRFEAIKKKILDAFPEDVIKEVKKGPGKIYVVGKPEYIKEIKKLTGSKDIIINSAGGSAGGS [r12_748_JUSTAS]” were -0.559 ± 0.36 kcal/mol and -0.606 ± 0.34 kcal/mol.
In the case of “SAGGSAGGSSTLSVELPDFTGSAADVLAALRAAFPDPALVLDGVEVRPLGADRPGWRVELAVASAGGSAGGS [r12_348_JUSTAS]”, the “folding stability dG unfold” value is 0.958 ± 0.091 kcal/mol in series [1] and 0.499 ± 0.078 kcal/mol in series [2].
In the same order, the values of “SAGGSAGGSTITGRFESPEGINELANEFPGVEIFEDPENNWIYVEIEIKPPPPPPPEDQKNNKSAGGSAGGS [r20_191_TrROS]” are 0.916 ± 0.078 kcal/mol and 0.35 ± 0.3 kcal/mol.
Regarding “SAGGSAGGSTTMTLTITEYTNDPEGGVKKKKSTTESTVSPEEVEKVAEEVKKKSKNVKVTVNSSAGGSAGGS [r12_342_JUSTAS]”, the “folding stability dG unfold” value in series [1] was -0.315 ± 0.29 kcal/mol; in series [2], -0.775 ± 0.23 kcal/mol.
